Experimental data as given in patent US20200392225A1.
Positions count from the first letter of the chain named. Each block holds one binder with its values, some of them ahead of it.

Legend:
[1] = molecular target: human NPR1 W74R mutant in the presence of ANP (human) (UniProt P01160); assay: ELISA, IgG titration, +100 nM ANP
[2] = molecular target: human NPR1 expressed on CHO-K1 cells in the presence of ANP (human) (UniProt P01160); assay: flow cytometry, 2 uM IgG, +100 nM ANP
[3] = molecular target: T1, human NPR3 (counter target) (human) (UniProt P17342); assay: ELISA, 1 uM IgG
T1 sequence (looked up): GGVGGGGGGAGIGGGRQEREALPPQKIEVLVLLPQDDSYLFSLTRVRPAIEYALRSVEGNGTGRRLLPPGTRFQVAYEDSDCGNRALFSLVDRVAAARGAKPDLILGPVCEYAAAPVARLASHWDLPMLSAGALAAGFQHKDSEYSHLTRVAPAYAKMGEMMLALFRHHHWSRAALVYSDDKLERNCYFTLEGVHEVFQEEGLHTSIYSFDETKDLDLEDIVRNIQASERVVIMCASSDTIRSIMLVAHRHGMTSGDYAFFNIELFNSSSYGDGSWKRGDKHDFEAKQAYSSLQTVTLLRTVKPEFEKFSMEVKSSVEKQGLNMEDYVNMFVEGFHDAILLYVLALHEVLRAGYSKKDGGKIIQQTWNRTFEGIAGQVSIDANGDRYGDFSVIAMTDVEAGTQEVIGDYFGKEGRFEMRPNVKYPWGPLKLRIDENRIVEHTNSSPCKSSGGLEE

[4] = molecular target: human NPR1 W74R mutant in the presence of ANP (human) (UniProt P01160); assay: ELISA, 1 uM IgG, +100 nM ANP
[5] = molecular target: T2, human NPR3 in the presence of ANP (human) (UniProt P17342); assay: ELISA, 1 uM IgG, +100 nM ANP
T2 sequence (looked up): T1 sequence (looked up)
T2 sequence (peptide, looked up): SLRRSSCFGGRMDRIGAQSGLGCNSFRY

[6] = molecular target: T3, rat NPR1, recombinant antigen (rat) (UniProt P18910); assay: ELISA, 1 uM IgG
T3 sequence: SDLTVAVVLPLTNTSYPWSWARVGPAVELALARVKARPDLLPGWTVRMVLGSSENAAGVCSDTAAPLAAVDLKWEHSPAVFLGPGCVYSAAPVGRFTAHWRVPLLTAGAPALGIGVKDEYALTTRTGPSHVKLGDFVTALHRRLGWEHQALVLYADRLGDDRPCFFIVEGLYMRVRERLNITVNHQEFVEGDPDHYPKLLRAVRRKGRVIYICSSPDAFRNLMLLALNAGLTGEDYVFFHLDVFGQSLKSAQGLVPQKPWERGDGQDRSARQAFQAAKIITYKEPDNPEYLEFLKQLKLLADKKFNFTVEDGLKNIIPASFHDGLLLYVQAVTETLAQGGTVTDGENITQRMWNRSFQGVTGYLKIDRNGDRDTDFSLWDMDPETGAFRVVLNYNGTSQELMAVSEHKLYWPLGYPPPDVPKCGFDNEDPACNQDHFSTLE

[7] = molecular target: human NPR1 W74R mutant in the presence of ANP (human) (UniProt P01160); assay: ELISA, IgG titrated on the antigen with 250 fold molar excess of ANP [cont.]

- ELISA IgG binding at 1 uM IgG (unit not given) [4]: 20
- ELISA IgG binding at 1 uM IgG (unit not given) [5]: 5
B3: YY07 IgG (YY07_LALA) (antibody, V domains shown)
VH: EVQLVQSGAEVKKPGESLKISCKGSGYSFTSYWISWVRQMPGKGLEWMGIIYPGTSYTRYSPSFQGQVTISADKSISTAYLQWSSLKASDTAMYYCARGSLPGLLGFDHWGQGTLVTVSS
VL: QSVLTQPPSVSGAPGQRVTISCTGSSSNIGAGYDVHWYQQLPGTAPKLLIYGNSNRPNGVPDRFSGSKSGTSASLAITGLQAEDEADYYCQSYDSPTSSSVFGGGTKLTVLG

- ELISA IgG binding at 1 uM IgG (unit not given) [3]: 6
- ELISA IgG binding at 1 uM IgG (unit not given) [6]: 3
- ELISA IgG binding at 1 uM IgG (unit not given) [4]: 86
- ELISA IgG binding at 1 uM IgG (unit not given) [5]: 6
- EC50 (read off the curve) [7]: 20 nM
B4: YY06 IgG (YY06_LALA) (antibody, V domains shown)
VH: EVQLLESGGGLVQPGGSLRLSCAASGFTFSSYAISWVRQAPGKGLEWVSAISGSGGSTYYAESVKGRFTISRDNSKNTLYLQMNSLRAEDTAVYYCARPYLGDRRSYGFDHWGQGTLVTVSS
VL: QSALTQPASVSGSPGQSITISCTGTSSDVGSYNLVSWYQQHPGKAPKLMIYEGSKRPSGVSNRFSGSKSGNTASLTISGLQAEDEADYYCSSYGFHIVVVVFGGGTKLTVLG

The remaining lines, values behind:

B1: WW06 IgG (WW06_LALA) (antibody, V domains shown)
VH: QVQLVQSGAEVKKPGESLKISCKGSGYSFTSYWIAWVRQMPGKGLEWMGRIDPDNSYTRYSPSFQGQVTISADKSISTAYLQWSSLKASDTAMYYCARWLSPGYALGEQPAGMDHWGQGTLVTVSS
VL: DIVLTQPPSVSGAPGQRVTISCTGSSSNIGAGYAVHWYQQLPGTAPKLLIYSNNKRPSGVPDRFSGSKSGTSASLAITGLQAEDEADYYCQSYDLQKSSRVFGGGTKLTVLG
- EC50 [1]: 0.8 nM
- flow cytometry S/BG [2]: 1.1 S/BG

B2: YY05 IgG (YY05_LALA) (antibody, V domains shown)
VH: B3 VH with S100A, L101V, P102A, L104Q
VL: B3 VL with N58S, D94Y, S95T, P96S, T97S, S98H, S99G, S100P
- ELISA IgG binding at 1 uM IgG (unit not given) [3]: 7
- ELISA IgG binding at 1 uM IgG (unit not given) [4]: 23
- ELISA IgG binding at 1 uM IgG (unit not given) [5]: 4
